Data taken from publication PMC6721692.

What was measured:
[1] = biological target: endogenous TrkB of cultured rat hippocampal neurons (rat (endogenous in hippocampal neurons)) (UniProt Q63604); assay: non-reducing SDS-PAGE and Western blot; lysates of rat hippocampal neurons (vehicle or BDNF 1.0 nM) with SDS, without β-ME; blots with 80E3 and MM12
[2] = biological target: endogenous TrkB of cultured rat hippocampal neurons (rat (endogenous in hippocampal neurons)) (UniProt Q63604); assay: native gel or EMSA; native PAGE (no SDS, no β-ME) of lysates of rat hippocampal neurons treated with vehicle or BDNF (1.0 nM, 15 min); Western blot with anti-TrkB antibodies (80E3, MM12)

endogenous TrkB of cultured rat hippocampal neurons, Q63604 32-821 (receptor; other documents disagree on this pair), sequence (Q63604 32-821): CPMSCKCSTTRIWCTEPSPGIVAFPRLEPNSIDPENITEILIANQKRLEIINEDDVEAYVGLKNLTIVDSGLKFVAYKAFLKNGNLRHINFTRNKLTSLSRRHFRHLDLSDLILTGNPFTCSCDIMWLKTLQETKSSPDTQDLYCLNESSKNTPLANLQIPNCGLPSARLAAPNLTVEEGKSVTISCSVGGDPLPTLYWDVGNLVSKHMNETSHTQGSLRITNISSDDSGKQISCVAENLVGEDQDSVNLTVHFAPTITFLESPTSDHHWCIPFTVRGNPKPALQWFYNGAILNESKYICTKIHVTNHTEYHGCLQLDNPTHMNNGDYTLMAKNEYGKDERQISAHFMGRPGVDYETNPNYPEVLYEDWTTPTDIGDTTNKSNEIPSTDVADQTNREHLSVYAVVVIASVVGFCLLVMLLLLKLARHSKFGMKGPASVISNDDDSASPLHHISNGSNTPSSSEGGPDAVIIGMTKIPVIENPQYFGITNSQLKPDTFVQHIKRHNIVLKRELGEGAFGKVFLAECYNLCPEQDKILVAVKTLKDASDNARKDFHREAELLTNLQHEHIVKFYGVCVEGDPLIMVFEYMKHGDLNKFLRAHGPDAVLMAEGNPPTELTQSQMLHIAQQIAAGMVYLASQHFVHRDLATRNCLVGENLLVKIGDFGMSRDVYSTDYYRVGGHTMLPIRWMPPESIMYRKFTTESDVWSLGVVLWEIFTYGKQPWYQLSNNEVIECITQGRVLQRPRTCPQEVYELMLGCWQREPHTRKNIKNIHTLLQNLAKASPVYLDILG

“endogenous TrkB of cultured rat hippocampal neurons, Q63604 32-821 (receptor; other documents disagree on this pair)” was tested. Which stoichiometry N [1] did it give?
The stoichiometry N was 2.

And the stoichiometry N [2]?
The stoichiometry N was 2.
